Tests used:
[1] = molecular target: T1, recombinant human Hsp90 (human, UniProt P07900 1-732); test: SPR competition: Hsp90 pre-mixed with 705.5 uM peptide, injected over immobilized Hop TPR2A
T1 construct: The tag is placed first here only because pDEST17 is named; also called heat shock protein 90; not shown: histidine tag from E. coli expression vector pDEST17-Hsp90

[2] = molecular target: T1, recombinant human Hsp90; test: SPR competition: Hsp90 pre-mixed with 14.11 uM peptide, injected over immobilized Hop TPR2A
[3] = molecular target: T1, recombinant human Hsp90; test: SPR competition: Hsp90 without peptide (0 uM, reference) over immobilized Hop TPR2A
[4] = molecular target: T1, recombinant human Hsp90; test: SPR competition: Hsp90 pre-mixed with 282.2 uM peptide, injected over immobilized Hop TPR2A
[5] = molecular target: T1, recombinant human Hsp90; test: SPR competition: Hsp90 pre-mixed with 1.411 uM peptide, injected over immobilized Hop TPR2A
[6] = molecular target: T1, recombinant human Hsp90; test: SPR competition: Hsp90 pre-mixed with 141.1 uM peptide, injected over immobilized Hop TPR2A

Binding of Hsp90 (%) [1] [%]	Binding of Hsp90 (%) [2] [%]	Binding of Hsp90 (%) [3] [%]	Binding of Hsp90 (%) [4] [%]	Binding of Hsp90 (%) [5] [%]	Binding of Hsp90 (%) [6] [%]	Binder
0	84.6	100	29.8	88.2	72.3	KAYARIGNSYFK [TPR peptide (KAYARIGNSYFK)]
88.9	100	100	90.7	100	100	RKFSAAIGYNKY (Control peptide) [TPR scramble peptide]

From US20120003299A1 (KYOTO UNIVERSITY, published 2012)
